# Measured values taken from patent US20240360216A1 (NOVOPROTEIN SCIENTIFIC, published 2024).
# T1: monkey CD3E protein (Examples 4.2 and 7) (monkey, UniProt Q95LI5 22-117)
# T1 construct: extracellular domain
# T1 sequence (looked up): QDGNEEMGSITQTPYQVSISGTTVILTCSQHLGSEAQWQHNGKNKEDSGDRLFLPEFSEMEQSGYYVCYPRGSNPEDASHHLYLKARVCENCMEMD
# B1: CD3 full-length antibody CQ54 (antibody, V domains shown)
# VH: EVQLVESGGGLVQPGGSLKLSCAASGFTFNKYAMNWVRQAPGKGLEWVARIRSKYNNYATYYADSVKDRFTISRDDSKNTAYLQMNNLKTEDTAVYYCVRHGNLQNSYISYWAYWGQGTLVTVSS
# VL: QTVVTQEPSLTVSPGGTVTLTCGSSTGPVTGGNYPNWVQQKPGQAPRGLIGGTKFLAPGTPARFSGSLLGGKAALTLSGVQPEDEAEYYCVLWESNRWVFGGGTKLTVLT
# notes: Includes huVH5 and huVL5
# B2: OKT3 antibody (control antibody) (antibody, V domains shown)
# VH: not shown
# VL: QIVLTQSPAIMSASPGEKVTMTCSASSSVSYMNWYQQKSGTSPKRWIYDTSKLASGVPAHFRGSGSGTSYSLTISGMEAEDAATYYCQQWSSNPFTFGSGTKLEINR
# Experiments:
# [1] = target: T2, human CD3 on Jurkat cells (human CD3+ cell line) (human, UniProt P07766 23-207); test: flow cytometry on Jurkat cells, anti hFC-APC detection
# T2 construct: whole, on cells; Also used for the T cells of human PBMC in the CD69 assays; also called human CD3 positive cells; CD3 on T cells of PBMC
# T2 sequence (P07766 23-207): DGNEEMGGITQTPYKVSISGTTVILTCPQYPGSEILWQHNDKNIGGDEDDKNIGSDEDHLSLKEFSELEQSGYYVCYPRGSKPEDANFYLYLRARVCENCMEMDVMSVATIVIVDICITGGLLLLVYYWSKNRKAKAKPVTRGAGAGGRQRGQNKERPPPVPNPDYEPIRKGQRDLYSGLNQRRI
# [2] = target: T1, monkey CD3E protein (Examples 4.2 and 7); test: ELISA on monkey CD3E
# [3] = target: T3, human CD3E protein (Example 4.1) (human, UniProt P07766 23-126); test: Fortebio (BLI), antibody on protein A sensor, CD3E diluted from 100 nM
# T3 construct: extracellular domain
# T3 sequence (P07766 23-126): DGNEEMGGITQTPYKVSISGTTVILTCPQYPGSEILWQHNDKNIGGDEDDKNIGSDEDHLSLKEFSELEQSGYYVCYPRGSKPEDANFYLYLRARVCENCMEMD
# [4] = target: T1, monkey CD3E protein (Examples 4.2 and 7); test: ELISA
Binder,EC50 [1],EC50 [2],Kd [3],koff [3],kon [3],binding result [4]
B1,0.023 µg/mL,0.375 µg/mL,0.97 nM,0.000604 s⁻¹,621000 M⁻¹ s⁻¹,
B2,,,,,,no binding
